Sequences and labels used below:
B1: CEA-4N1-TA1+4O1 (bispecific antibody, human IgG4 S228P, F234A L235A)
chain 1: EVQLVESGGGFVQAGESLTLSCTSSTLTFTPYRMAWYRQAPGKQRDLVADISSGDGRTTNYADFAKGRFTISRDNIKNTVFLRMTNLKPEDTAVYYCNTFVSFVGIARSWGQGTQVTVSSESKYGPPCPPCPAPEAAGGPSVFLFPPKPKDTLMISRTPEVTCVVVDVSQEDPEVQFNWYVDGVEVHNAKTKPREEQFNSTYRVVSVLTVLHQDWLNGKEYKCKVSNKGLPSSIEKTISKAKGQPREPQVYTLPPCQEEMTKNQVSLWCLVKGFYPSDIAVEWESNGQPENNYKTTPPVLDSDGSFFLYSRLTVDKSRWQEGNVFSCSVMHEALHNHYTQKSLSLSLGGGGSGGGGSEVKLLESGGGLVQPKGSLKLSCAASGFTFNTYAMNWVRQAPGKGLEWVARIRSKYNNYATYYADSVKDRFTISRDDSQSILYLQMNNLKTEDTAMYYCVRHGNFGNSYVSWFAYWGQGTLVTVSSGGGGSGGGGSGGGGSQAVVTQESALTTSPGETVTLTCRSSTGAVTTSNYANWVQEKPDHLFTGLIGGTNKRAPGVPARFSGSLIGDKAALTITGAQTEDEAIYFCALWYSNLWVFGGGTKVEIKRT
chain 2: ESKYGPPCPPCPAPEAAGGPSVFLFPPKPKDTLMISRTPEVTCVVVDVSQEDPEVQFNWYVDGVEVHNAKTKPREEQFNSTYRVVSVLTVLHQDWLNGKEYKCKVSNKGLPSSIEKTISKAKGQPREPQVCTLPPSQEEMTKNQVSLSCAVKGFYPSDIAVEWESNGQPENNYKTTPPVLDSDGSFFLVSRLTVDKSRWQEGNVFSCSVMHEALHNRFTQKSLSLSL
B2: TA1-4N1+CEA-4O1 (bispecific antibody, human IgG4 S228P, F234A L235A)
chain 1: EVKLLESGGGLVQPKGSLKLSCAASGFTFNTYAMNWVRQAPGKGLEWVARIRSKYNNYATYYADSVKDRFTISRDDSQSILYLQMNNLKTEDTAMYYCVRHGNFGNSYVSWFAYWGQGTLVTVSSGGGGSGGGGSGGGGSQAVVTQESALTTSPGETVTLTCRSSTGAVTTSNYANWVQEKPDHLFTGLIGGTNKRAPGVPARFSGSLIGDKAALTITGAQTEDEAIYFCALWYSNLWVFGGGTKVEIKRTESKYGPPCPPCPAPEAAGGPSVFLFPPKPKDTLMISRTPEVTCVVVDVSQEDPEVQFNWYVDGVEVHNAKTKPREEQFNSTYRVVSVLTVLHQDWLNGKEYKCKVSNKGLPSSIEKTISKAKGQPREPQVYTLPPCQEEMTKNQVSLWCLVKGFYPSDIAVEWESNGQPENNYKTTPPVLDSDGSFFLYSRLTVDKSRWQEGNVFSCSVMHEALHNHYTQKSLSLSL
chain 2: EVQLVESGGGFVQAGESLTLSCTSSTLTFTPYRMAWYRQAPGKQRDLVADISSGDGRTTNYADFAKGRFTISRDNIKNTVFLRMTNLKPEDTAVYYCNTFVSFVGIARSWGQGTQVTVSSESKYGPPCPPCPAPEAAGGPSVFLFPPKPKDTLMISRTPEVTCVVVDVSQEDPEVQFNWYVDGVEVHNAKTKPREEQFNSTYRVVSVLTVLHQDWLNGKEYKCKVSNKGLPSSIEKTISKAKGQPREPQVCTLPPSQEEMTKNQVSLSCAVKGFYPSDIAVEWESNGQPENNYKTTPPVLDSDGSFFLVSRLTVDKSRWQEGNVFSCSVMHEALHNRFTQKSLSLSL
B3: 4N1-TA1+CEA-4O1 (bispecific antibody, human IgG4 S228P, F234A L235A)
chain 1: ESKYGPPCPPCPAPEAAGGPSVFLFPPKPKDTLMISRTPEVTCVVVDVSQEDPEVQFNWYVDGVEVHNAKTKPREEQFNSTYRVVSVLTVLHQDWLNGKEYKCKVSNKGLPSSIEKTISKAKGQPREPQVYTLPPCQEEMTKNQVSLWCLVKGFYPSDIAVEWESNGQPENNYKTTPPVLDSDGSFFLYSRLTVDKSRWQEGNVFSCSVMHEALHNHYTQKSLSLSLGGGGSGGGGSEVKLLESGGGLVQPKGSLKLSCAASGFTFNTYAMNWVRQAPGKGLEWVARIRSKYNNYATYYADSVKDRFTISRDDSQSILYLQMNNLKTEDTAMYYCVRHGNFGNSYVSWFAYWGQGTLVTVSSGGGGSGGGGSGGGGSQAVVTQESALTTSPGETVTLTCRSSTGAVTTSNYANWVQEKPDHLFTGLIGGTNKRAPGVPARFSGSLIGDKAALTITGAQTEDEAIYFCALWYSNLWVFGGGTKVEIKRT
chain 2: B2 chain 2
B4: CEA-4N1+TA1-4O1 (bispecific antibody, human IgG4 S228P, F234A L235A)
chain 1: B2 chain 2 with C251Y, S256C, S268W, A270L, V309Y, R337H, F338Y
chain 2: B2 chain 1 with Y382C, C387S, W399S, L401A, Y440V, H468R, Y469F
B5: CEA-4N1+4O1-TA1 (bispecific antibody, human IgG4 S228P, F234A L235A)
chain 1: B2 chain 2 with C251Y, S256C, S268W, A270L, V309Y, R337H, F338Y
chain 2: B3 chain 1 with Y131C, C136S, W148S, L150A, Y189V, H217R, Y218F
B6: 4N1-TA1+4O1-CEA (bispecific antibody, human IgG4 S228P, F234A L235A)
chain 1: B3 chain 1
chain 2: ESKYGPPCPPCPAPEAAGGPSVFLFPPKPKDTLMISRTPEVTCVVVDVSQEDPEVQFNWYVDGVEVHNAKTKPREEQFNSTYRVVSVLTVLHQDWLNGKEYKCKVSNKGLPSSIEKTISKAKGQPREPQVCTLPPSQEEMTKNQVSLSCAVKGFYPSDIAVEWESNGQPENNYKTTPPVLDSDGSFFLVSRLTVDKSRWQEGNVFSCSVMHEALHNRFTQKSLSLSLGGGGSGGGGSEVQLVESGGGFVQAGESLTLSCTSSTLTFTPYRMAWYRQAPGKQRDLVADISSGDGRTTNYADFAKGRFTISRDNIKNTVFLRMTNLKPEDTAVYYCNTFVSFVGIARSWGQGTQVTVSS

Positions count from the first letter of the chain named.

The target in the test is T1, human carcinoembryonic antigen-related cell adhesion molecule 5 (human, UniProt P06731 35-702).
T1 sequence (looked up): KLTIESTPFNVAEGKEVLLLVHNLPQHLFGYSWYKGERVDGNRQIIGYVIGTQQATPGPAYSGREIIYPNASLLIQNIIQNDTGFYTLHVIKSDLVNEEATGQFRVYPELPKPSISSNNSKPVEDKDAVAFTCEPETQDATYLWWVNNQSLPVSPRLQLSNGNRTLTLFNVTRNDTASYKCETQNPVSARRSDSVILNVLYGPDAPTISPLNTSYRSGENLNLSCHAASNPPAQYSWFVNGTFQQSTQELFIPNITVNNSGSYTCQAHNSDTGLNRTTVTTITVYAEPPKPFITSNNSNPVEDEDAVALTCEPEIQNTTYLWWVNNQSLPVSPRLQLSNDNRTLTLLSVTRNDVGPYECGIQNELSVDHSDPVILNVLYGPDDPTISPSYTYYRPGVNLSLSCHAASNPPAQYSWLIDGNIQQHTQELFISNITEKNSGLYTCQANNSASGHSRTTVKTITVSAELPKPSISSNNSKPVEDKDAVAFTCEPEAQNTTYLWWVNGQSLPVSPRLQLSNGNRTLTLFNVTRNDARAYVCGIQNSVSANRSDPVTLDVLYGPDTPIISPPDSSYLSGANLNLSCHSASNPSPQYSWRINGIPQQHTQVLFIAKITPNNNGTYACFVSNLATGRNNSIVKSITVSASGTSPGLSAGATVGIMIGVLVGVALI
Kind of test: cell-based or functional assay.
Regarding B1, the “EC50 (pM) of TCB-mediated killing of LS-174T target cells co-cultured with human PBMCs (viability read-out)” value (“EC50 (pM)” below) was 0.4 pM. As to B2, the “EC50 (pM)” value turned out to be 3.1 pM. Take B3: the “EC50 (pM)” value is 6 pM. For the molecule B4, the “EC50 (pM)” value worked out at 0.005 pM. With B5, the “EC50 (pM)” value was 9 pM. Consider B6, for which the “EC50 (pM)” value was 6.7 pM.

Values taken from patent US20240425590A1 (VIBRANT PHARMA, published 2024).
